Source: patent US20240150457A1

Legend:
[1] = molecular target: Cynomolgus monkey PAR-2 on cells (cynomolgus monkey); test: cell-based or functional assay
[2] = molecular target: Recombinant cynomolgus monkey PAR-2 (cynomolgus monkey); test: SPR (Biacore), antibody captured on Protein A chip, recombinant PAR-2 injected
[3] = molecular target: Cynomolgus monkey PAR-2 on cells (cynomolgus monkey); test: cell-based or functional assay; remark: listed apart in the source

| IC50 mean, calcium flux at SLIGKV EC80 (Nomad line) [1] [nM] | IC50 mean, β-arrestin at SLIGKV EC80 (Nomad line) [1] [nM] | Kd [2] [nM] | SLIGKV EC80 mean, calcium flux [3] [nM] | SLIGKV EC80 mean, β-arrestin [3] [nM] | Binder |
| --- | --- | --- | --- | --- | --- |
| 3.98 | 15.2 | 4.45 | – | – | P24E1102 (antibody, human IgG4 S228P, kappa, V domains shown) VH: QVQLVQSGAEVKKPGSSVKVSCKASGFSLSSYAISWVRQAPGQGLEWMGVIWGNQNVYYAQKFQGRVTITADESTSTAYMELSSLRSEDTAVYYCARWKGYKDYPFDYWGQGTLVTVSS VL: EIVLTQSPATLSLSPGERATLSCRASQNVYKWLDWYQQKPGQAPRLLIYNANTRATGIPARFSGSGSGRDFTLTISSLEPEDFAVYYCQQHHSGWTFGGGTKVEIKR |
| – | – | – | 39000 | 107000 | SLIGKV |
